The record followed here is FireProtDB (doi:10.1016/s0022-2836(02)00737-4).

To fix the notation:
B1: Tryptophan synthase alpha chain, P0A877 (parent)
chain: MERYESLFAQLKERKEGAFVPFVTLGDPGIEQSLKIIDTLIEAGADALELGIPFSDPLADGPTIQNATLRAFAAGVTPAQCFEMLALIRQKHPTIPIGLLMYANLVFNKGIDEFYAQCEKVGVDSVLVADVPVEESAPFRQAALRHNVAPIFICPPNADDDLLRQIASYGRGYTYLLSRAGVTGAENRAALPLNHLVAKLKEYNAAPPLQGFGISAPDQVKAAIDAGAAGAISGSAIVKIIEQHINEPEKMLAALKVFVQPMKAATRS

Variants of B1 are the subject of this series. The following applies: Escherichia coli (strain K12); pH 7.8; 25 °C; Urea; CD; potassium phosphate 10 mM; transition: 3; structure 1WQ5; whole UniProt chain shown.

“And” between values parts separate entries of the source, which are not always exact repeats. Identical values can stand only once.

In the case of P28G, the denaturant m value was 2.15 kcal/mol/M and 1.18 kcal/mol/M; the “denaturant midpoint (higher = more stable)” value is 2.08 M and 4.1 M; the unfolding free energy was 4.47 kcal/mol and 4.84 kcal/mol.
In the case of P28A, the denaturant m value is 1.48 kcal/mol/M and 1.04 kcal/mol/M; the “denaturant midpoint (higher = more stable)” value was 1.36 M and 3.66 M; the unfolding free energy is 2.01 kcal/mol and 3.81 kcal/mol.
